The target in series [1] is T1, Halhy (D-amino acid transaminase from Haliscomenobacter hydrossis) (Haliscomenobacter hydrossis, UniProt F4KWH0).
T1 construct: gene Halhy_2446; N-terminal His6-TEV tag cut off with TEV protease; E. coli Rosetta(DE3) pLysS; codon-optimised synthetic gene; homodimer (about 62 kDa by gel filtration)
Nature of the series: X-ray crystal structure, […] Å. Format: binding. The settings on record: covalent; Schiff base with K143; holo form, pH 4.8.

Substrate in series [2]: O=C(O)CCC(=O)C(=O)O
Nature of the series: purified protein. The settings on record: D-alanine 40 mM, 50 mM K-phosphate pH 8, 30 µM PLP. It is filed as biochemical, Haliscomenobacter hydrossis.

Substrate in series [3]: CC(C)C[C@@H](N)C(=O)O
Nature of the series: steady-state kinetics of overall transamination (HPLC of 4-methyl-2-oxovalerate). It is filed as biochemical, Haliscomenobacter hydrossis. Conditions: α-ketoglutarate 5 mM, 50 mM K-phosphate pH 8, 30 µM PLP, 40 °C. The source says: steady-state kinetics of overall transamination (HPLC of 4-methyl-2-oxovalerate) on Halhy (D-amino acid transaminase from Haliscomenobacter hydrossis)

Substrate in series [4]: C[C@@H](N)C(=O)O
Nature of the series: purified protein. Conditions: α-ketoglutarate 5 mM, 50 mM K-phosphate pH 8, 30 µM PLP, 40 °C.

Substrate in series [5]: CC(=O)C(=O)O
Nature of the series: purified protein. Format: biochemical, Haliscomenobacter hydrossis. Conditions: D-glutamate 4 mM, 50 mM K-phosphate pH 8, 30 µM PLP, 40 °C.

Substrate in series [6]: N[C@H](CCC(=O)O)C(=O)O
In words: purified protein. Format: biochemical, Haliscomenobacter hydrossis. The settings on record: pyruvate 2.5 mM, 50 mM K-phosphate pH 8, 30 µM PLP, 40 °C.

Substrate in series [7]: CC(C)CC(=O)C(=O)O
In words: steady-state kinetics of overall transamination. The settings on record: D-alanine 40 mM, 50 mM K-phosphate pH 8, 30 µM PLP, 40 °C. It is filed as biochemical, Haliscomenobacter hydrossis. From the text: steady-state kinetics of overall transamination on Halhy (D-amino acid transaminase from Haliscomenobacter hydrossis)

As for `Cc1ncc(COP(=O)(O)O)c(C=O)c1O` [pyridoxal-5'-phosphate], the “X-ray crystal structure, 2.0 Å” value in series [1] is recorded as “structure of WT Halhy in the holo form with a covalently bound PLP was determined”.

B1: Halhy (D-amino acid transaminase from Haliscomenobacter hydrossis) (Haliscomenobacter hydrossis DSM 1100; R179G) (protein)
chain: MIKYYNINGQQVPVENATLHVSDLSILRGYGIFDYFLAREGHPLFLDDYLNRFYRSAAELYLEIPFDKAELRRQIYALLQANEVREAGIRLVLTGGYSPDGYTPVNPNLLIMMYDLPASAWEFSAQGIKIITHPFQRELPEVKTINYSTGIRMLKTIKERGATDLIYVDQGEWIRESAGSNFFLVMPDNTIVTADEKILWGITRRQVIDAAREAGYAVEERRIHITELDQAREAFFTSTIKGVMAIGQIDDRVFGDGTIGKVTQELQDLFVGKVKAYLETC
notes: N-terminal His6-TEV tag cut off with TEV protease; E. coli Rosetta(DE3) pLysS; codon-optimised synthetic gene; homodimer (about 62 kDa by gel filtration)
The Km is the substrate concentration at which the rate is half of its maximum. What is called kcat is the maximal rate divided by the concentration of active sites. Broadly, the kcat/Km is the second-order rate constant that governs catalysis at low substrate concentration. For the molecule B1, in “purified protein [2]” (25 °C), the Km amounted to 8.1 ± 0.8 mM, the kcat is 8.6 ± 0.6 s⁻¹ and the kcat/Km worked out at 1100 M⁻¹ s⁻¹.

B2: Halhy (D-amino acid transaminase from Haliscomenobacter hydrossis) (Haliscomenobacter hydrossis DSM 1100) (protein)
chain: MIKYYNINGQQVPVENATLHVSDLSILRGYGIFDYFLAREGHPLFLDDYLNRFYRSAAELYLEIPFDKAELRRQIYALLQANEVREAGIRLVLTGGYSPDGYTPVNPNLLIMMYDLPASAWEFSAQGIKIITHPFQRELPEVKTINYSTGIRMLKTIKERGATDLIYVDQGEWIRESARSNFFLVMPDNTIVTADEKILWGITRRQVIDAAREAGYAVEERRIHITELDQAREAFFTSTIKGVMAIGQIDDRVFGDGTIGKVTQELQDLFVGKVKAYLETC
notes: as for B1
Regarding B2, the Km in series [3] was found to be 83 ± 8 mM; in the series “purified protein [4]”, 23 ± 1 mM; in the series “purified protein [2]” (40 °C), 2.3 ± 0.2 mM; in “purified protein [5]” it was 2.1 ± 0.1 mM; in “purified protein [6]”, 10.3 ± 0.7 mM; in series [7] it was 70 ± 6 mM. The kcat in series [3] worked out at 10.5 ± 0.4 s⁻¹; in “purified protein [4]”, 146 ± 4 s⁻¹; in the series “purified protein [2]” (40 °C), 146 ± 4 s⁻¹; in “purified protein [5]”, 215 ± 6 s⁻¹; in the series “purified protein [6]”, 215 ± 6 s⁻¹; in series [7] it was 4.2 ± 0.1 s⁻¹. In addition, the kcat/Km in series [3] worked out at 130 M⁻¹ s⁻¹; in “purified protein [4]”, 6300 M⁻¹ s⁻¹; in “purified protein [2]” (40 °C), 63000 ± 7000 M⁻¹ s⁻¹; in the series “purified protein [5]” it was 103000 ± 8000 M⁻¹ s⁻¹; in the series “purified protein [6]” it was 21000 ± 2000 M⁻¹ s⁻¹; in series [7] it was 60 M⁻¹ s⁻¹.

These data come from article PMC8401098, “The Uncommon Active Site of D-Amino Acid Transaminase from Haliscomenobacter hydrossis: Biochemical and Structural Insights into the New Enzyme” (Molecules, 2021).
